From US20070048860A1
One block for each substance: values may come before it.

What was measured:
Assay in all cases: cell-based or functional assay
[1] = target: murine LFA-3 (CD48) expressed on MC38 cells infected with rV-LFA-3 (murine) (UniProt P18181)
[2] = target: murine ICAM-1 (CD54) expressed on MC38 cells infected with rV-ICAM-1 (murine) (UniProt P13597)
[3] = target: murine B7-1 (CD80) expressed on MC38 cells infected with rV-B7-1 (murine) (UniProt Q00609)

- reduction of the increased T-cell proliferation supported by MC38/LFA-3 (Con A, 3H-thymidine) [1]: 98%
Substance: Hamster anti-murine CD48 (BCM-1 clone HM48-1) (antibody)

- reduction of the increased T-cell proliferation supported by MC38/ICAM-1 (Con A, 3H-thymidine) [2]: 88%
Substance: Hamster anti-murine CD54 (ICAM-1; clone 3E2) (antibody)

- inhibition of the increased T-cell proliferation supported by MC38/B7-1 (Con A, 3H-thymidine) [3]: 83%
Substance: Hamster anti-murine CD80 (B7-1; clone 16-10A1) (antibody)
